Experiments:
[1] = molecular target: T1, human recombinant IGF-2 (insulin-like growth factor 2) (Homo sapiens (Human)., UniProt P01344); assay: SPR; Biacore T200, 25 °C, HBS-EP (10 mM HEPES pH 7.4, 150 mM NaCl, 1 mM EDTA, 0.05% Tween 20); mAb from clone culture supernatant captured by immobilised polyclonal rabbit anti-mouse IgG on CM5; analytes injected at 90, 30, 10, 3.3, 1.1, 0 nM, in triplicate; dissociation 5, 30 or 120 min (IGF-1 on anti–IGF-1: 120 min); 1:1 Langmuir fit; conditions: one partner purified
T1 construct: insulin-like growth factor 2, human, mature 67-amino acid peptide (7.5 kDa; 7.2-kDa recombinant analyte); loop positions 53–65 are counted on UniProtKB P01344; also called mature IGF-2; source: bought: PeproTech (100-12)
T1 sequence (P01344 25-91): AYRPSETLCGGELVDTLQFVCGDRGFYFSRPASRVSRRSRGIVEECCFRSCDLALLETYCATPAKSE

[2] = molecular target: T2, human recombinant IGF-1 (insulin-like growth factor 1) (Homo sapiens (Human)., UniProt P05019); assay: as above; conditions: one partner purified
T2 construct: insulin-like growth factor 1, human, mature 70-amino acid polypeptide hormone (7.7 kDa; 7.6-kDa recombinant analyte); loop positions 74–90 are counted on UniProtKB P05019; Two suppliers are named (PeproTech for SPR, Roche Penzberg for ECLIA); They are kept as one molecule because both are recombinant mature human IGF-1; also called mature human IGF-1; source: bought: PeproTech (100-11) (SPR); …
T2 sequence (P05019 49-118): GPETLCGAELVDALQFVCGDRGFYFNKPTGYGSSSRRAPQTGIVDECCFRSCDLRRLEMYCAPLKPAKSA

TtSlyD-IGF-1(74–90) = molecular target: T3, TtSlyD-IGF-1(74–90) (Thermus thermophilus (strain ATCC …)); assay: as above; conditions: one partner purified
T3 construct: Thermus thermophilus SlyD, FKBP domain upstream of the insertion site (Nt-SlyD-FKBP); the printed cell begins with the MRGS tag, which replaces Met1; single glycine linker; human IGF-1 loop, positions 74–90 of UniProtKB P05019, grafted in place of the IF domain (TtSlyD residues 67–121); Thermus thermophilus SlyD, FKBP domain downstream of the insertion site (Ct-SlyD-FKBP), from Ala122; The SPR …
T3 chain: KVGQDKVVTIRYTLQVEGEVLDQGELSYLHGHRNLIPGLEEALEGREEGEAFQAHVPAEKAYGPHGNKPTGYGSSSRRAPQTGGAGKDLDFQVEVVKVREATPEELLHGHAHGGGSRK

[3] = molecular target: T2, human recombinant IGF-1 (insulin-like …); assay: as above; conditions: one partner purified; remark: listed apart in the source
[4] = molecular target: T4, IGF-1 linear sequence stretch Lys75 to Arg84 (on 15-mer array peptides) (Homo sapiens (Human).); assay: peptide or protein array; Intavis CelluSpots slides with 15-mer peptides (off-set 1) of human IGF-1, and an alanine scan; 1 μg/ml antibody in TBST, ambient temperature, 2 h; HRP secondary antibody, chemiluminescence
T4 construct: human IGF-1, stretch Lys75–Arg84 (numbers on UniProtKB P05019), mapped with 15-mer peptides off-set by 1 amino acid; The peptides on the array were 15 amino acids long; source: synthetic peptide, spotted on Intavis CelluSpots glass slides
T4 chain: KPTGYGSSSR

- binding result [1]: no binding (tested: 90 nM)
- t1/2 diss [2]: 11.3 h
- Kd (TtSlyD-IGF-1(74–90)): 0.031 nM
- koff (TtSlyD-IGF-1(74–90)): 2.8e-05 s⁻¹
- kon (TtSlyD-IGF-1(74–90)): 920000 M⁻¹ s⁻¹
- Kd [3]: 0.0055 nM
- koff [3]: 1.7e-05 s⁻¹
- kon [3]: 3e+06 M⁻¹ s⁻¹
- binding result [4]: binds
B1: mAb anti–IGF-1(74–90) (antibody, V domains shown)
VH: QVQLQQSGAELVRPGSSVKISCKASGYAFSNLWMNWVKQRPGQGLEWIGQIYPGDGDTNYYGDFKGKATLTADSSSSTAYMQLSRLTSEDSAVYFCARIGYYGMDYWGQGTSVTVSS
VL: DVVLTQTPLSLPVNIGDEASISCKSTKSLLSSDGLTYLDWYLQKPGQSPQVLIYLVSNRFSGVPDRFSGSGSGTDFTLKISRVEAEDLGVYYCFQSNYLPTFGAGTKLELK
notes: Murine monoclonal antibody raised with TtSlyD-IGF-1(74–90); In the ECLIA it stood as a biotinylated or ruthenylated conjugate (lysine ε-amino groups); also called mAb IGF-1(74–90); anti–IGF-1 antibody; source: mouse hybridoma; clone culture supernatant captured on the sensor (SPR); purified from the cell culture supernatant (immunoconjugates for ECLIA)

— PMC6737233, “A novel epitope-presenting thermostable scaffold for the development of highly specific insulin-like growth factor-1/2 antibodies” (The Journal of Biological Chemistry, 2019)
